Where a chain is given by its changes, count along the chain named.

In experiment [1] the target is T1, human CC chemokine receptor 4 (CCR4) (human, UniProt P51679 1-360).
T1 sequence (looked up): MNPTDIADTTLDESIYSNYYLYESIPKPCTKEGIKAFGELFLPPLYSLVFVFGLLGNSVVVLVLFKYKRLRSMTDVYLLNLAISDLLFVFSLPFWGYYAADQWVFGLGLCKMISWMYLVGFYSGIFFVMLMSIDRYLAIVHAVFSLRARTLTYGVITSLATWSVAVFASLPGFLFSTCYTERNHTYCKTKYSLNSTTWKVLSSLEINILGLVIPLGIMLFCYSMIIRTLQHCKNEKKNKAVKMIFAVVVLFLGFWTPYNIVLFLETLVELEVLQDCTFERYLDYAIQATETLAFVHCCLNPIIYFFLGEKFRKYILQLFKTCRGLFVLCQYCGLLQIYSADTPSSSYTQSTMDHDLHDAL
Kind of experiment: cell-based or functional assay.

Experiment [2] has as its target T1, human CC chemokine receptor 4 (CCR4). Kind of experiment: flow cytometry, IgG titration on DT-40 CCR4+ cells, anti-human-FITC, MFI [a]. How it is done: The quality of the specific binding to DT40+ cells was tested for 9E1 D and 9E10J in scFv or IgG format in a titration experiment.
Alternatively, 9E1D and 9E10J were converted into the full-length human IgG1 and tested for cell binding. The DT40+CCR4 and DT40 cells were harvested from culture flasks, washed 2 times with PBS (400×g, 5 min, 4° C.) and resuspended in PBS containing 0.2% BSA and 0.09% NaN₃. 1×10⁵ cells per well were aliquoted into V-shaped 96-well plates (Greiner Bio-One, Frikenhausen, Germany). Cells were centrifuged (400×g, 5 min, 4° C.) and resuspended in a 1:5 dilution series of IgG starting on 10 μg/ml (50 μl/well). After 1 hour incubation at 4° C., the cells were washed three times with 150 μl PBS with 0.2% BSA and 0.09% NaN₃ and stained with 2.5 μg/ml RPE conjugated goat anti-human IgG (AbDSerotec, Düsseldorf, Germany) or 2.5 μg/ml anti human IgG Fc (goat polyclonal aff. pur) FITC (Sigma Aldrich) for 45 minutes at 4° C. Cells were washed, resuspended in 200 μl PBS with 0.2% BSA and 0.09% NaN₃, and transferred to a U-shaped 96 well Costar (Corning, Schiphol-Rijik, The Netherlands) plate for flow cytometry using an Easy Cyte device (Guava Technologies, Hayward, Calif., USA) or FACS Canto II flow cytometer (BD Biosciences, Heidelberg, Germany).

The target is the same in experiment [3]. Kind of experiment: flow cytometry, saturation titration of scFv cross-linked via myc-tag on DT-40 CCR4+ cells; one site-specific binding fit. How it is done:
DT 40 and CCRF-CEM cells were cultured as described in Example 2. The DT40 CCR4+ and DT40 (CCR4−) cells were harvested from culture flasks, washed 2 times with PBS (400×g, 5 min, 4° C.) and resuspended in PBS containing 0.2% BSA and 0.09% NaN₃. 1×10⁵ cells per well were aliquoted into V-shaped 96-well plates (Greiner Bio-One, Frikenhausen, Germany). […] […] Cells were washed, resuspended in 200 μl PBS with 0.2% BSA and 0.09% NaN₃, and transferred to a U-shaped 96 well Costar (Corning, Schiphol-Rijik, The Netherlands) plate for flow cytometry using an Easy Cyte device (Guava Technologies, Hayward, Calif., USA).
Background: A flow cytometer gives signals particle by particle.

Experiment [4] shares this target. Kind of experiment: competition flow cytometry on CCRF-CEM cells: unlabelled competitor against ca. 20 nM biotinylated MDC, streptavidin-PE [d]. The method, then:
The competition binding assays were performed with biotinylated MDC or biotinylated TARC on DT-40-CCR4+ and CCRF-CEM cells. DT40 and CCRF-CEM cells were cultured as described in Example 2. TARC and MDC were biotinylated using standard procedures. The biotinylation process causes some losses, so the concentrations of biotinylated MDC and TARC recited herein are approximate.
The cells were harvested from culture flasks, washed 2 times with PBS (400×g, 5 min, 4° C.) and resuspended in PBS containing 0.2% BSA and 0.09% NaN3. 1×10^5 cells per well were aliquoted into V-shaped 96-well plates (Greiner Bio-One, Frikenhausen, Germany). Cells were centrifuged (400×g, 5 min, 4° C.) and resuspended in 50 μl IgG, single chain or unlabeled ligand (1:10 dilution series starting on 100/500/26, 4 μg/ml) mixed with a fixed concentration of biotinylated ligand (10 or 20 nM, see legend to FIG. 24). The cells were incubated for 2 hours at 4° C. and mixed with a pipette every 45 min. The cells were washed three times with 150 μl PBS with 0.2% BSA and 0.09% NaN3 and stained with 3 μg/ml streptavidin PE (BD Biosciences) for 45 minutes at 4° C. […] Apparent binding affinities (KD) were calculated according to the following equation derived from previously described methods (Kipriyanov et al, 1997b; Schodin & Kranz, 1993): […]

Experiment [5] shares this target. Kind of experiment: IgG1 expressed from pLNO, purified; method not told there.

B1: defucosylated 9E10J IgG (antibody, V domains shown)
VH: QVQLVQSGAEVKKPGSSVKVSCKASGGTFSSYAISWVRQAPGQGLEWMGGIIPIFGTANYAQKFQGRVTMTRDTSTSTVYMELSSLRSEDTAVYYCARRGGSYFDYWGQGTLVTVSS
VL: SYVLTQPPSASGTPGQSVTISCSGSTSNIGSHYVFWYQQLPGTAPRLLIYRNHQRPSGVPDRLSGSKSGTSASLAISGLRSEDEADYYCAVWDDTLSGWVFGGGTKLTVLG
modifications: Fc glycans defucosylated (IgG produced in the presence of Kifunensine, 100 ng/ml)
B1: in experiment [1], the “ADCC of CCRF-CEM cells, EC50 (mean, N=4)” value was 2.1 ng/mL.

B2: 9E1D IgG (full length human IgG1, lambda) (antibody, V domains shown)
VH: B1 VH with S31N, M70I, R72A, T74E, V79A
VL: QPVLTQPPSASGTPGQRVTISCSGGGSNIGRRFVNWYQQLPGTAPKLLIYRNNQRPSGVPDRFSGSKSGTSASLVISGLRSEDEADYYCAAWDDSLSGWVFGGGTKLTVLG
Consider B2, for which the binding result in experiment [2] was “binds”.

B3: 9E1D scFv (scFv)
scFv: QVQLVQSGAEVKKPGSSVKVSCKASGGTFSNYAISWVRQAPGQGLEWMGGIIPIFGTANYAQKFQGRVTITADESTSTAYMELSSLRSEDTAVYYCARRGGSYFDYWGQGTLVTVSSKLSGSASAPKLEEGEFSEARVQPVLTQPPSASGTPGQRVTISCSGGGSNIGRRFVNWYQQLPGTAPKLLIYRNNQRPSGVPDRFSGSKSGTSASLVISGLRSEDEADYYCAAWDDSLSGWVFGGGTKLTVLAAAGSEQKLISEEDLNSHHHHHH
notes: also called scFv 9E1D
The molecule B3 came in with a Kd in experiment [3] of 5.22 nM.

B4: 9E scFv (scFv)
scFv: QVQLVQSGAEVKKPGSSVKVSCKASGGTFSNYAISWVRQAPGQGLEWMGGIIPIFGTANYAQKFQGRVTITADESTSTAYMELSSLRSEDTAVYYCARRGGSYFDYWGQGTLVTVSSKLSGSASAPKLEEGEFSEARVSYVLTQPPSASGTPGQSVTISCSGSTSNIGSHYVFWYQQLPGTAPRLLIYRNHQRPSGVPDRLSGSKSGTSASLAISGLRSEDEADYYCAVWDDTLSGWVFGGGTKLTVLAAAGSEQKLISEEDLNSHHHHHH
notes: For staining the scFv was pre-incubated with an anti-c-myc antibody with human Fc (cross-linked, dimer-like); also called scFv 9E
Turning to B4, in experiment [3], the Kd worked out at 4.95 nM.

B5: 9E10J scFv (scFv)
scFv: B4 scFv with N31S, I70M, A72R, E74T, A79V
notes: also called scFv 9E10J
On to B5, for which, in experiment [3], the Kd stood at 1.17 nM. In addition, the “IC50 (read off the curve)” value in experiment [4] was approximately 200 nM.

B6: 11F IgG (full length human IgG1, kappa) (antibody, V domains shown)
VH: not shown
VL: ETTLTQSPGTLSLSPGEGVTLSCRASQSVNRRYLAWYQQKPGQAPRLLIYGASSRATGIPDRFSGSGSGTDFTLTISRLEPEDFAVYYCQQYGSSPLTFGGGTKVEIKR
For the molecule B6, the binding result in experiment [5] is “binds”.

As a reminder, the Kd is the free concentration of one partner at which half of the binding sites on the other are occupied at equilibrium, for simple one-to-one binding. Low values mean higher affinity, high ones lower affinity.

Values taken from US20160208003A1 (AFFITECH RESEARCH, published 2016).
